According to US20160058856A1:

Experiments:
[1] = target: MHC class I molecule H-2K^d on CT26 target cells (mouse) (UniProt P01902); test: cell-based or functional assay
[2] = target: MHC class I molecule H-2L^d on CT26 target cells (mouse) (UniProt P01897); test: cell-based or functional assay
Chain of UniProt P01897 (P01897 25-362): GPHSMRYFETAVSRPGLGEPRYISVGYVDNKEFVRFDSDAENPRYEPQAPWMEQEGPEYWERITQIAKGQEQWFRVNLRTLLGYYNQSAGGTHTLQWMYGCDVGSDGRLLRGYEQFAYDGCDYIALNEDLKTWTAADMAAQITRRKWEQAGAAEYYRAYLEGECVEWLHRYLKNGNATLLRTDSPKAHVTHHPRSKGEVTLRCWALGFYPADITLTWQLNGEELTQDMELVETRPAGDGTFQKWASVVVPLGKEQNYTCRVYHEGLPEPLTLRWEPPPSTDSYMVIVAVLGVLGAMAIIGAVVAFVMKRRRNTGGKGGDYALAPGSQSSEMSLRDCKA

Chain of UniProt P01902 (P01902 22-368): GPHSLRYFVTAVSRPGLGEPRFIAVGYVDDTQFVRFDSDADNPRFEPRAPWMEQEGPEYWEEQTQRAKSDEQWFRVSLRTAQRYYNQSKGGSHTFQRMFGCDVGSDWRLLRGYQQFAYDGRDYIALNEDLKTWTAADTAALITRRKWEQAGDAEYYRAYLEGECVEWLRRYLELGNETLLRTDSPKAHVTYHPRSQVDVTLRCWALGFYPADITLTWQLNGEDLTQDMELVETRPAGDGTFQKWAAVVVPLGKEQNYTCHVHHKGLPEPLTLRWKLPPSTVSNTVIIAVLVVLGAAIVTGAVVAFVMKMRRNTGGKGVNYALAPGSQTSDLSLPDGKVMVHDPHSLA

| Substance | CTL activity (CFSE-based cytotoxicity assay, CT26 target cells pre-incubated with blocking antibodies) (fraction of the control values) [1] | CTL activity (CFSE-based cytotoxicity assay, CT26 target cells pre-incubated with blocking antibodies) (fraction of the control values) [2] |
| --- | --- | --- |
| anti-MHC class I monoclonal antibody H-2K^d: SF1-1.1.1 (eBioScience) | 0.33 | – |
| anti-MHC class I monoclonal antibody H-2L^d: 28-14-8 (BioLegend) | – | 0.33 |
